Source: the nanobody polyreactivity screen of Harvey et al. (2022)

Assay: yeast display, Sf9 membrane polyspecificity reagent, FACS + sequencing; frameworks hold sequencing errors
Procedure, shortened: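 Galactose-induced (36–48 hours) yeast carrying a synthetic nanobody display library were exposed to 10% biotinylated, detergent-solubilized Sf9 membrane reagent at 4 °C for 1 hour. FACS followed streptavidin microbead enrichment, using low and high (top ~1%) gates for expression (anti-HA) and reagent binding (streptavidin). Colony PCR, MiSeq 2 × 250 sequencing and CDR-length filtering followed. Labels for polyreactivity reflect the gate of origin.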

Row | Sequence | polyreactivity (PSR sort gate)
1 | QDQLEESGGGLVQEGGSLRLSCAASGFIFPRYAMGWYRQAPGKERELVAAISRSGGITRYADSVKGRFSISRDNAKNTVYLQMISLKPEDTAVYYCAAARSYWAKYYYWGQGTQVTVSS | high polyreactivity
2 | QVQLVESGGGLVQAGGSLRLSCAASGFTFYQNAMGWYRQAPGKEREFVAAISRRGGSTYYADSVKGRFTSSRDNAKNTVYLQMNSLKPEDTAVYYCAADYKRKSDGDYWGQGTQVTVSS | high polyreactivity
3 | QVQLVETGGGLVQAGGSIRLTCAASGLTYTGNAIVWSRQAPGKEMECVAAIRWSAGSTYYADSVKGRFTISRDNAKNTVYLQMNSLKPEDTAVYYCNAALNVSGHYPNDYWGQGTQVTVSS | low polyreactivity
4 | QVQLVESGGGLVQAGGSLRLSCAPSGSTSYLYAMGWYRQAPGKERELVATITTRSGSTYYADSVKGRFTISRDNAKNTVYIQMNSLKPEDTAVYYCAARWISVWSEGAEHDYWGQGTQVTVSS | low polyreactivity
5 | QVQLVESGGGFVQAGGSLRLSCAASGSIIKRNAMGWYRQAPGKERELVASISSGGSTKYADSVKGRFTLSRDNAKNTVYLQMNSLKPEDTAVYYCAKRSSQTRRAYDYWGQGTQVTVSS | low polyreactivity
6 | QVQLVESGGGLVQAGGSLRLSCAASGRIFGINAMGWYRQAPGKERELVAAINWSGGSTYYADSVKGRFTISRDNAKNTVYLQMNSLKPEDTAVYYCAAQKYKRVGYWGQGTQVTVSS | high polyreactivity
7 | QVQLVESGGGLVQAGGSLRLSCAASGSTFQPYAMGWYRQAPGKEREFVATISGSAGSTYYADSVKGRFKISRDNAKNTVYLQMNSLKPEDTAVYYCNADSGWFGYDYWGQGTQVTVSS | low polyreactivity
8 | QVQLVESGGGLVQAGGSLRLSCAASGRTFWYYAMGWYRQAPGKERELVASISRSGGSTYYADSVKGRFTISRDNAKNTVYLQMNSLKPEDTAVYYCARGSELGYYAWVYYWGQGTQVTVSS | high polyreactivity
9 | QVQLVESGGGLVQAGGSLRLSCAASGFIFPKNAMGWYRQAPGKERELVAAISRSSGNTYYADSVKGRFTISRDNAKNTVYLQMNSLKPEDTAVYYCAASYWPYRGPVGGSKMYYWGQGTQVTVSS | high polyreactivity
10 | QVQLVESGGGLVQAGGIHRLSCPASGIIFYYYAMGWYRHAPGKESELVAAISWSGGSTYYADSVKGRFTISRDNAKYTVYLQMNSLKPEDTAVYYCAAAFSPGWWSRHTYDYDYWVQGTQVTVSS | high polyreactivity
11 | QVQLVESGGGLVQAGGSLRLSCAASGLNFWYYAMGWYRQAPGKERELVAAISWGGGSTYYADSVKGRFTISRDNAKNTVYLLMNSLKPEDTAVYYCAADSSYWYGTECDYWGQGTQVTVSS | high polyreactivity
12 | QVQRVETGGGLVQAAGSLRLSCAASGRTFRNYAMGWYRQAPGKERELVAAIRSGVRTYYADSVKGRFTISRDNAKNTVYLQMNSVKPEDTAVYYCAVATGLLYKSHGYCGQGTQVTVSS | low polyreactivity
13 | QVQLVESGGGLVQAGGSLRLSCAASGRTFSTNAMGLYRQAPGKERELVAAISASGGSTYYADSVKGRFTISRDNAKTTVYLQMNSLKPEDTAVYYCAAYPGQWRTGYDYWGQGTQVTVSS | high polyreactivity
14 | QVQLVESGGGLVQAGGSIRLSCAASGYILGRYAMGWYRQAPGKERELVAAITSGGSTYYADSVKGRFTISRDNAKNSVSLQMNSLKPEDTAVYYCAAYTRYWSYGYWGQGTQVTVSS | high polyreactivity
15 | QVHLVESGRGLLQAGGSLRLSCAPSGRTFGVYSMGWYSQAPGKERELVAAISWSGDRTYYADSVKGRFTISRDYAKNTVYLQMNSLKPEDPALDYAEYHGAKYDYWGQGTQVTVSS | high polyreactivity
16 | QVQLVESGGGLVQAGGSLRLSSAASVSTVTPYAMGWYRQAPGKERELVAVISESGGSTYYADSVKGRFTISRDNAKNTVYLQMNSLKPEDTAVYYCAKASYPEVLYYFFRGYTFDSWGQGTQVTVSS | low polyreactivity
17 | QVQLVESGGGLVQAGGSLRLSCAASGYTFGSNTMGWYRQAPGKERELVAVITWSGGSTYYADSVKGRFTISRDNAKNTVYLQMNSLKPEDTAVYYCAADATSPLTWFDYWGQGTQVTVSS | low polyreactivity
18 | QVHLVDSGGGLVQEGGSLRLSCGASGSTFQSYAMGWYRQSPGKERELVAVIDSGGRTYYADSVKGRFTISRDNAKNTVYLQINSLKPEDTAVYYCAARGPVGNGWRYRPWHDYWGQGTQVTVSS | high polyreactivity
19 | QVQLVESGGVLFQAGGSLSLSCAASGLTFPRYAMGWYRQAPGKESELDAAISYRGSRTYYADSVKGRFTISRDNAKNTVYLQMNSLKPEDTAVYYCNKVRPGYGVTYLVGYWGQGTQVTVSS | high polyreactivity
20 | QVQLVESWGGLVQAGGSLRLSCAASGSIFYTNVMGWYRQAPGKERELVARIDSGGSTNYADSVKGRFTISRDNAKNTVYLQMNSLKPEDTAVYYCAADWYIYDYWGQGTQVTVSS | low polyreactivity
21 | QVQLVESGGGLVQAGGSLRLSCAACGRIFTYNAMGWYRQAPGKERELVAAISSSGGRTYYADSVKGRFTISRDNAKNTLYLEMNSLKPEDTAVYYCARAYREGGRTQRGDYWGQGTQVTVSS | high polyreactivity
22 | QVKLVESGGGLVQAGGSLRLSCAASGITFGYNAMGWDRQAPGKERELVAAITGGSTYYADSVKGRFTISRDNAKNTFYLQMNSLKPEDSAVYYCATDPRRFWVIYYYWGQGTQVTVSS | low polyreactivity

Row | Sequence | polyreactivity (PSR sort gate)
23 | QVQLVESGGGLVQARGSLRLSCAASAFIIPVYTIGWYRQAPGKERELVAAITQIGGSTHYADSVKGRFTISRANAKNTVYLQMNSLKPEDTAVYYCAVDYDSYWYGTYVNEYDYWGLGTQVTVSS | low polyreactivity
24 | QVQLVESGGGLVQAGGSLRLSCAASGSTFYVNTMGWYRQAPGKERELVAAISGSGGSTYYADSVKGRFTISRDNAKNTVYLQMNSLKPEDTAVHYCAARSRYGYITFDYWGQGTQVTVSS | high polyreactivity
25 | QGQLVESGGGLVQAGGSLRLSCAAYGRIFYVYAMGWYRQAPGKERELVATITSSGDGTYYADSVKGRFTISRDNAKNTGYLQMNSLIPEDTAVYYCAARSWPYSQTGKRFVEYYYWGQGTQVSVSS | low polyreactivity
26 | QVQLEESGGGLVQAGGSHRLSCAASGPTFRRNVMGWSRQAPGKEREFVAAITWSGGNTYYADSVKGRITISRDNAKYTVFLQMYSLKREDTAVYYCNARSAIWGWGYGSYDYWGLGTQVTVSS | low polyreactivity
27 | QVQLVESGGGLVQAGGSLRLSCAASGRTFGSYAMGWYRQAPGKERELVAAISKGGGSTYYADSVKGRFTISRDNAKNTVYLQMNSLKPEDTAVYYCAKRRFEYYYYWGQGTQVTVSS | high polyreactivity
28 | QVQLVESGGGLVQAGGSLRLSCAASGRTFTCYAMGWYRQAPGKERELVATAITSGGSTNYADSVKGRFTISRDNAKNTVYLQMISLKPEDTAVYYCAAVPTEFGNRLEYDYWGQGTQVTVSS | low polyreactivity
29 | QVQLVESGGGLVQAGGSLRLSCAASGRLFKSYAMGWYRQAPGKEREFVAAISTRSSSTYYADSVKGLFTISRDNAKNTVYLQMNSLKPEDTAVYYCAATPRRVSPYGVPYGDVYWGQGTQVTVSS | low polyreactivity
30 | QVQLVQSGGGLVQAGGSLRLSCAASGFIIWDNAMGCYRQAPGKERELVAAISDSGGDTYYADSVKGRFTISRDNAKNTVYLQMNSLKPEDTAVYYCASDVELWVFRGDQYDYWGQGTQVTVSS | low polyreactivity
31 | QVQLVESGGGLVQAGGSLRLSCAASGRIFNLYDMGWYRQAPGKERELVAAIRIGDRTYYADSVKGRFTISRDNEKNTVYLQMNSLKQEDTAVYYCNREYLSNRDKRFFYWGQGTQVTVSS | low polyreactivity
32 | QVQLVESGGGLVQAGGRLRLSCAATGRTFWENAMGWYRQAPGKERELVAAISGDSGSTYYADSVKGRFTISRDNAKNTVYLQMNSLKPEDTAVYYCAADSDRDDSYPYYYWGQGTQVTVSS | low polyreactivity
33 | QFQLVESGGGLVQAGGSLRLSCAASGLTFSRYAMGWYIQAPGKERELVAAITCSGSSTYYSHSVKGRFTISRDNAKNNVYLQMNSLKPEDTAVYYCAARYGYSRGTYYRSDYWGQGTQVTVSS | high polyreactivity
34 | QVQLVESGGGLVQAGGSLRLSCAASGRILGGNAMGWYRQAPGKERELVAAITSGGTTNYADSVKGRFTISRDNAKNTVYLQMNSLKPEDTAVYYCNADWTDGDWADMDYWGQGTQVTVSS | low polyreactivity
35 | QVQLVESGGGLVQAGGSLRLSCAASGLTFGFNAMGWYRQAPWKERELDAAISSGGSTYYADSVKGRFTISRDNAKNTVYLQMNSLKPEDTAVYYCAKSGGSSQYWYGYWGQGTQVTVSS | high polyreactivity
36 | QVQLVESGGGLEQAGGSLRISCAASGITFRWYAMGWYRQAPGKERELVAAISERGGSTYYADSVKGRFTISRDNAKNTVYLQMNSLKPEDTAVYYCAADSQHWQRWHGYWGQGTEVTVSS | high polyreactivity
37 | QVQQQESGGGLVQAGGSLRLSCAASGTIFQLTVMGRYRQAPGKERELVASIDYGGNTNYADSVKGRFTISRDNAKNTVYLQMNSLKPEDTAVYYCAASSDSWTTHPYWGQGTQGTVSS | low polyreactivity
38 | QVQLVESGGGLVQAGGSLRLICAASGGIFATYAMGWYRQAPGKEMELVAAITKRGGSTYYADSVKGRFTISRDNAKNTVYLQMNSLTPEDTAVYYCAAKGYRWFRLGGYYFKFDYWGQGTQVTVSS | high polyreactivity
39 | QVQLVESGGGLVQAGGSLRLSCAASGITYRGYAMGWYRQAPGKERELVAAISSGGSTSYADSLKGRFTISRDNAKNTVYLQMNSLKPEDTAVYYCAKDDERKQGQYPPYDSWGQGTQVTVSS | low polyreactivity
40 | QVQLVESGGGLVQAGGSLRLSCAASGITFSGNAMGWYRQAPGKERELVATISQSGGSTYYADSVKGRFTISRDNAKNTVYLQMNSLKPEDTAVYYCNVNLQGRYSDKYDYWGQGTQVTVSS | high polyreactivity
41 | QVQLVESGGGLVQAGGSLRLSCAASGRIFTAYAMVWYRPAPGKERELVAAISSGDSTYYADSVKGRFTISRDNAKNTVYLQKNSLKPEETAVYSCATGVYPDFEYDSWGQGTQVTVSS | low polyreactivity
42 | QVQLVESGGGLVQAGGSLRLSCAASGRTFALYAMGWYRQAPGKERELVAAITFSGGSTSYADSVKGRFTISRDNAKYTVYLQMNSLKPEDTAVYYCAAYWYSLYYLYPYDYWGQGTQVTVSS | low polyreactivity
43 | QLQHVESGGGLVQAGGSLRLSCAASGYIFPVNAMGSYRQAPGKERELVASLTSGGSTYYADSVKGRFTISRDNAKNTVYLQMNSLKPEDTAVYYCAAQLGYAKPYVYGEWYYYWGQGNQVTVSS | low polyreactivity
